Data on three molecules can be found in patent publication US20100311844A1, “Spontaneously Forming Ellipsoidal Phospholipid Unilamellar Vesicles” (priority 2006, published 2010).

“Also recorded” adds a separate entry of the source.

Series [1] can be described thus: SANS of non-doped, H1-, H2- and SapC-doped DOPS/DPPC/DHPC mixtures (modified Guinier plot, ellipsoidal shell model fit). The format is physicochemical. The following applies: for effect of peptide on bilayer stability: SANS result; for effect of peptide on ULV size and size distribution / effect of peptide on membrane thickness: peptide 62.5 μM. The procedure:
For preparation of liposomes containing protein, SapC was over expressed in E. coli cells using the IPTG-inducing pET system, and His-tag proteins were eluted from nickel columns. After dialysis, the proteins were further purified by HPLC chromatography as follows: The C4 reverse phase column was equilibrated with 0.1% trifluoroacetic acid (TFA) for 10 minutes, then the proteins were eluted in a linear (0-100%) gradient of 0.1% TFA in acetonitrile over 60 minutes. The major protein peak was collected and lyophilized, while protein concentrations were determined as described previously. H1 (YCEVCEFLVKEVTKLID) and H2 (EKEILDAF DKMCSKLPK) peptides were synthesized by SynPep Corp. (California, USA) and dissolved in D2O at a concentration of 1.5 mg/mL. The 0.1 wt. % lipid solution with [DOPS]/[DPPC]=10 and ([DPPC]+[DOPS]/DHPC=4 was then added to the two peptide solutions (1.5 mg/mL) at a volume ratio of 12:1, and the SapC solution with a volume ratio of 1:1, yielding a final peptide (or SapC) concentration of 62.5 μM, (molar ratio of [lipid]/[peptide]=22/1) a concentration higher than the SapC required to induce membrane destabilization. A sample containing only 6.25 μM of SapC ([lipid]/[SapC]=220/1) was also prepared for comparison purposes.
To determine the structure and stability of the resulting liposomes, the homogenized 10 wt. % solutions are first progressively diluted into 5, 2, 1, 0.5 and 0.1 wt. % samples. Prior to DLS measurements, the 0.1 wt. % stock lipid samples are diluted 5, 50 and 200 fold, and are analyzed using an N4^+ particle sizer (Coulter, Miami, Fla.). Using this method, it was determined that diluting the system had no effect on the size of the particles. For SANS experiments, the same sample preparation protocol was applied to the [DOPS]/[DPPC]=10 sample except that D2O (99.9%, Chalk River Laboratories, Chalk River, ON), instead of H2O, was used to obtain a sample with a total lipid concentration of 0.5 wt. %. The 0.5 wt. % sample was then further diluted into 0.1 and 0.05 wt. % mixtures using an acidic buffer composed of equal-volumes of 0.1N sodium acetate (NaAc) and 0.1N acetic acid (HAc).
SANS experiments were carried out on the 30 m NG7 SANS instrument located at the National Institute of Standards and Technology (NIST) Center for Neutron Research (NCNR, Gaithersburg, Md., USA). 8.09 Å wavelength (λ) neutrons, a neutron focusing lens and a long sample-to-detector distance (SDD=15.3 m) were used to reach the lowest scattering vectors [q=4π/λ·sin(θ/2), where θ is the scattering angle]. Two other SDD (5 and 1 m) were also used, covering a combined q range from 0.002 to 0.35 Å^−1 for all three SDD. Raw 2-D data were corrected for detector sensitivity, background, empty cell scattering and sample transmission. The corrected data were then circularly averaged, around the beam center, yielding the customary 1-D data. […] The incoherent plateau was determined by averaging the intensity of 10-20 high q data points and then subtracted from the reduced data.
For q>0.06 Å^−1 the differences in intensity among the three data sets (FIG. 2) are indistinguishable. Analysis of a modified Guinier plot^30 (also known as Kratky-Porod plot) applied to all three samples, where ln(I·q^2) has a linear relationship with q^2 in the range between 5×10^−3 and 2.5×10^−2 Å^−2, indicate the existence of a lamellar structure. […] The lines represent the best-fits to the data. The bilayer thickness is then derived from the square root of the slope multiplying by √{square root over (12)}.
The model for a unilamellar tri-axial ellipsoidal vesicle is depicted as an ellipsoidal shell (FIG. 4) with different core lengths along the three prime axes, acore, bcore and ccore (acore≦bcore≦ccore). The shell lengths along the axes, ashell, bshell and cshell, are defined as (acore+l), (bcore+l) and (ccore+l), respectively, where l is the bilayer thickness. […]

Series [2] deals with T1, SapC induced membrane fusion (Homo sapiens, UniProt P07602).
T1 sequence (P07602 311-390 limits assumed): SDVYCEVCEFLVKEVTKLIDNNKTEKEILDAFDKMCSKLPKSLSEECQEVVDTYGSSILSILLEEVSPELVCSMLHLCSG
The following applies: reported by Wang et al.; cited from earlier work.

For series [3] the following is noted: AFM, supported membranes; cited from earlier work.

Turning to “EKEILDAFDKMCSKLPK [H2, helical domain peptide of SapC, synthesized by SynPep Corp]”, in series [1], the “effect of peptide on bilayer stability” value is “do not destabilize the bilayer morphology”; the “effect of peptide on ULV size and size distribution” value is “shifts the equilibrium between the two ULV aggregates present”; the “effect of peptide on membrane thickness” value is “small decreases to the membrane thickness”. The “inhibition of SapC induced membrane fusion” value in series [2] is “can inhibit SapC induced membrane fusion”. In addition, the “effect on destabilization and restructuring of lipid membranes” value (“effect … of lipid membranes” below) in series [3] is recorded as “neither H1 nor H2 alone have significant influence on membrane structure”.
Regarding “YCEVCEFLVKEVTKLID [H1, helical domain peptide of SapC, synthesized by SynPep Corp]”, in series [1], the “effect of peptide on bilayer stability” value is listed as “do not destabilize the bilayer morphology”; the “effect of peptide on ULV size and size distribution” value is reported as “does not appear to modify ULV size or their size distribution”; the “effect of peptide on membrane thickness” value was “small decreases to the membrane thickness”. Further, the “inhibition of SapC induced membrane fusion” value in series [2] is “can inhibit SapC induced membrane fusion”. In series [3], the “effect … of lipid membranes” value is “neither H1 nor H2 alone have significant influence on membrane structure”.

B1: SapC: human Saposin C, over expressed in E. coli as His-tag protein, HPLC purified (protein)
chain: T1 sequence (P07602 311-390 limits assumed)
modifications: His-tag
notes: human Saposin C, over expressed in E. coli as His-tag protein, HPLC purified
Consider B1, for which the “effect of SapC on ULV” value was “ULV structure is unperturbed; also recorded: do not appear to perturb the size of ULV or their membrane structure” in series [1] (SapC 6.25 μM, [lipid]/[SapC]=220/1) and “promotes aggregation of ULV” in series [1] (SapC 62.5 μM, [lipid]/[SapC]=22/1, acetate D2O buffer). In series [3], the “effect … of lipid membranes” value was “can destabilize and restructure the acidic membrane”.
